# Results reported in publication PMC2749708.
# Tests used:
# [1] = molecular target: EspFU three-repeat fragment; test: AUC + other: binding assays
# [2] = molecular target: N-WASP GBD (amino acids 214-274) (UniProt O08816)
# UniProt O08816, sequence (O08816 214-274): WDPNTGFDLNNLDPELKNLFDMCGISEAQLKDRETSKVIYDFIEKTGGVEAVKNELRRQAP
# EspFU three-repeat fragment, sequence (C6UYI3 whole entry, the tested form may be a part): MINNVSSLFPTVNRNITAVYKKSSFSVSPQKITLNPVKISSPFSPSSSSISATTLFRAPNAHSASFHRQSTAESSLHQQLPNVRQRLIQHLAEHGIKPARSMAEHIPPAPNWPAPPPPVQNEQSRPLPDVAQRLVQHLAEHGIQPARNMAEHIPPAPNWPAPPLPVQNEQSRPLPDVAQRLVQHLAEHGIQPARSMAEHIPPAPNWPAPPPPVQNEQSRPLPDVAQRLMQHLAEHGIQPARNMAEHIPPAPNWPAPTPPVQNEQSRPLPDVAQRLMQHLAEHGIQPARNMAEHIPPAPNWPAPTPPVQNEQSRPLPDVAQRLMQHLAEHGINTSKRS
Substance,stoichiometry N [1],Kd [2]
N-WASP GBD (domain or fragment),3,
one EspFU repeat (domain or fragment),,18 nM
